As usually defined, the Kd is the concentration at which binding is half-saturated.

From patent publication US20180057604A1 (Genentech, published 2018) come the findings set out here.

First the molecules themselves.
B1: hu7A4.v5 (antibody, V domains shown)
VH: EVQLVQSGAEVKKPGASVKVSCKASGYTFTDYAMHWVRQAPGQGLEWMGGISTYFGRTNYNQKFKGRVTMTRDTSISTAYMELSRLRSDDTAVYYCARGLSGNYVMDYWGQGTTVTVSS
VL: DIVMTQSPDSLAVSLGERATINCRASESVDSYGNSFMHWYQQKPGQPPKLLIYRASNLESGIPDRFSGSGSGTDFTLTISSLQAEDVAVYYCQQSNEGPPTFGQGTKLEIK
notes: IgG
B2: 5878 (antibody, V domains shown)
VH: EVQLLESGGGLVQPGGSLRLSCAASGFTFSSYAMSWVRQAPGKGLEWVSAISGSGISTPYADSVKGRFTISRDNSKNTLYLQMNSLRAEDTAVYYCAKGAGHGSYVKGWFDPWGQGTLVTVSS
VL: EIVLTQSPATLSLSPGERATLSCRASQSVSSYLAWYQQKPGQAPRLLIYDASNRATGIPARFSGSGSGTDFTLTISSLEPEDFAVYYCQQSVNFPFTFGGGTKVEIK
notes: anti-BACE1 IgG
B3: 5876 (antibody, V domains shown)
VH: EVQLLESGGGLVQPGGSLRLSCAASGFTFSSRAMGWVRQAPGKGLEWVSATSGSGGSIYYADSVKGRFTISRDNSKNTLYLQMNSLRAEDTAVYYCAKGGSQWLYAPGSWFDPWGQGTLVTVSS
VL: B2 VL with Q89V, S91R, V92S, F96W
notes: anti-BACE1 IgG
B4: 5881 (antibody, V domains shown)
VH: B2 VH with S31K
VL: B2 VL
notes: anti-BACE1 IgG
B5: 5875 (antibody, V domains shown)
VH: B3 VH with S31T, R32Y, I58T
VL: B2 VL with Q89V, S91R, V92S, F96W
notes: anti-BACE1 IgG
B6: 5880 (antibody, V domains shown)
VH: B2 VH with S30G, S35T
VL: B2 VL
notes: anti-BACE1 IgG
B7: 5536 (antibody, V domains shown)
VH: QVQLVQSGAEVKKPGSSVKVSCKASGGTFSSYAISWVRQAPGQGLEWMGSIIPIFGTANYAQKFQGRVTITADESTSTAYMELSSLRSEDTAVYYCARSGGTKYGMLDVWGQGTMVTVSS
VL: EIVMTQSPATLSVSPGERATLSCRASQSVGSNLAWYQQKPGQAPRLLIYGASTRATGIPARFSGSGSGTEFTLTISSLQSEDFAVYYCQQSYLWPPRTFGGGTKVEIK
notes: anti-BACE1 IgG
B8: 5747 (antibody, V domains shown)
VH: QLQLQESGPGLVKPSETLSLTCTVSGGSISSSSYYWGWIRQPPGKGLEWIGNIYYSGSTYYNPSLKSRVTISVDTSKNQFSLKLSSVTAADTAVYYCARLGHGYSYFDLWGRGTLVTVSS
VL: B7 VL with M4L, V13L, G30S, N32Y, G50D, T53N, E70D, Q79E, S80P, S91V
notes: anti-BACE1 IgG
B9: 5874 (antibody, V domains shown)
VH: B3 VH with S30G, R32Y, G35S, I58T, N84D
VL: B2 VL with Q89V, S91R, V92S, F96W
notes: anti-BACE1 IgG
B10: 5986 (antibody, V domains shown)
VH: B8 VH with N52Q, Y60F
VL: EIVLTQSPATLSLSPGERATLSCRASQSVSSYLAWFQQKPGQAPRLLIYDASNRATGIPARFSGSGSGTDFTLTISSLEPEDFAVYYCQQVYVWPPRTFGGGTKVEIK
notes: anti-BACE1 IgG

Residue numbers refer to the chain shown, from its start.

The target in the first experiment is T1, human TfR extracellular domain with N-terminal His tag (human, UniProt P02786 89-760).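 Also: His-tagged TfR captured via immobilized anti-His antibody on a CM5 chip, antibody injected in 3-fold dilution series by single cycle kinetics, 1:1 Langmuir or steady-state fit.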
T1 construct: Biotinylated in some assays; also called huTfR; HuTfR
T1 sequence (P02786 89-760 G142S): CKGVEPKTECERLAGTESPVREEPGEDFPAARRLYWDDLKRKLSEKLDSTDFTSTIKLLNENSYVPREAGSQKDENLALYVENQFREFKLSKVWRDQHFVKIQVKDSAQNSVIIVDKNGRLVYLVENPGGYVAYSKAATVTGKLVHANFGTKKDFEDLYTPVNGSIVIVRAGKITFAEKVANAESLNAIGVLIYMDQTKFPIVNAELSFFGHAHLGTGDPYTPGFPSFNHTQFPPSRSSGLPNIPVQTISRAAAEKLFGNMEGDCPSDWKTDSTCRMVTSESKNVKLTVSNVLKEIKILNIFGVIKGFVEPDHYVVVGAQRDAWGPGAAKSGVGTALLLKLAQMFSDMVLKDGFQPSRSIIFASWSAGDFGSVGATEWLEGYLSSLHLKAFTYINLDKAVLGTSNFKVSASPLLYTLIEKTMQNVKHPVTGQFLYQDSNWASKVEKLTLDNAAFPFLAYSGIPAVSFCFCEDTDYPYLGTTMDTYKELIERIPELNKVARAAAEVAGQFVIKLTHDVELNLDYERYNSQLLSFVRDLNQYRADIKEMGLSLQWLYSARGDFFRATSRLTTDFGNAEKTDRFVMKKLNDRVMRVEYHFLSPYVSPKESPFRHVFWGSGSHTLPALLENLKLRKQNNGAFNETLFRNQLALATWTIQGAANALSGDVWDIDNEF
The experiment is described as follows: SPR, IgG. (In SPR one partner is held on a chip, and binding of the other changes the refractive index at the surface.)
The molecule B1 showed a Kd of 0.364 nM.

The target in another experiment is T2, human BACE1 ECD.
T2 construct: analyte of the Octet assay (200 nM) and enzyme of the first short substrate assay; also called human BACE1 extracellular domain
T2 sequence (single chain, as listed by the source limits assumed): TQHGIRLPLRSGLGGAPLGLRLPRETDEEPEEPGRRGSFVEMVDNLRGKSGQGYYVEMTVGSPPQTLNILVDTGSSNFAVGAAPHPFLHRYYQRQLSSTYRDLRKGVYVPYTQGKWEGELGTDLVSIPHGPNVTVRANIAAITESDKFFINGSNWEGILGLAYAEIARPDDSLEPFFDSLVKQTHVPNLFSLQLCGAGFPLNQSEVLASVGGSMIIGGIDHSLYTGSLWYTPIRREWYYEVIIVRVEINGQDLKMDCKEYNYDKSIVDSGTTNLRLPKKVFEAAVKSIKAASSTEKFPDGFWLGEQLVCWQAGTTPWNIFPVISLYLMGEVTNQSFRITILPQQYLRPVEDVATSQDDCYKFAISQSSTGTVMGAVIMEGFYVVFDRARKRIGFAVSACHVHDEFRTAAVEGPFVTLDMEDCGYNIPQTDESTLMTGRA
The experiment is described as follows: Octet, pH 5.0. On the technique in general: In BLI a coated tip is dipped into the sample, and binding shifts an interference pattern.
B2 came in with a Kd of 11 nM.
Still for that read-out and setting: the same measure for B3: 31 nM; for B4: 11 nM; for B5: 50 nM.
On to B6, for which the affinity, expressed as Kd, was 4.5 nM.
Still for that read-out and setting: the same measure for B7: 17 nM.
Same read-out and setting: the same measure for B8: 3 nM.

The target of a further experiment is T3, murine BACE1 ECD.
T3 construct: analyte of the Octet assay (200 nM) and enzyme of the first short substrate assay
T3 sequence (single chain, as listed by the source limits assumed): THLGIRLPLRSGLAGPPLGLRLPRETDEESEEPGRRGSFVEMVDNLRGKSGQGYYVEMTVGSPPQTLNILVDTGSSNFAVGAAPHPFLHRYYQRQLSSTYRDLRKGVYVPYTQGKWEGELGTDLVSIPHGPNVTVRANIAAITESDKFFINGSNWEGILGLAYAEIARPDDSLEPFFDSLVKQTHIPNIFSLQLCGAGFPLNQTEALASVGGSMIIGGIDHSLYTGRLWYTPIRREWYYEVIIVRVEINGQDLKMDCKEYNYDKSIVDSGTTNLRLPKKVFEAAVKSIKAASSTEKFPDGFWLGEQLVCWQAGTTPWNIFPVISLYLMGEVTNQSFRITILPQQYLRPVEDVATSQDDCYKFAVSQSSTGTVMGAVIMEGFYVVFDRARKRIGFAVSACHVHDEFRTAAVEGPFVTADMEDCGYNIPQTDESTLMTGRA
The experiment is described as follows: Octet, pH 5.0.
In the case of B2, the Kd was 14 nM.
The same measure, in the same setting: the same measure for B3: 43 nM; for B9: 200 nM.
On the same count and under the same terms, the same measure for B4: 15 nM; for B5: 120 nM.
Same read-out and setting: the same measure for B6: 6.1 nM; for B7: 6.8 nM; for B8: 3.1 nM.

The next experiment concerns the target T2, human BACE1 ECD. The experiment is described as follows: Octet, pH 7.5.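 Also: antibodies captured on anti-human capture biosensor tips, dissociation followed in PBS with BSA buffer, kinetics fitted with a one-to-one binding model.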
In the case of B2, the Kd came to 2.5 nM.
Same read-out and setting: the same measure for B3: 9.4 nM; for B9: 33 nM; for B4: 2.6 nM.
Same read-out and setting: the same measure for B5: 32 nM.
On the same count and under the same terms, the value for B6 was 1 nM.
In the case of B7, the Kd was 15 nM.
Still for that read-out and setting: the same measure for B8: 3.3 nM.

The target of a further experiment is T3, murine BACE1 ECD. The experiment is described as follows: Octet, pH 7.5.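 Also: antibodies captured on anti-human capture biosensor tips, dissociation followed in PBS with BSA buffer, kinetics fitted with a one-to-one binding model.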
On to B2, for which the affinity, expressed as Kd, was 2.7 nM.
The same measure, in the same setting: the same measure for B3: 9.7 nM; for B9: 22 nM; for B4: 2.4 nM.
The same measure, in the same setting: the value for B5 was 22 nM; that for B6 was 1.2 nM.
The same measure, in the same setting: the value for B7 was 22 nM.
B8 registered a Kd of 2.2 nM.

The target in another experiment is T4, human BACE1 (R&D Systems) (human, UniProt P56817).
T4 construct: recombinant, commercial (R&D Systems)
T4 sequence (P56817 22-457 limits assumed): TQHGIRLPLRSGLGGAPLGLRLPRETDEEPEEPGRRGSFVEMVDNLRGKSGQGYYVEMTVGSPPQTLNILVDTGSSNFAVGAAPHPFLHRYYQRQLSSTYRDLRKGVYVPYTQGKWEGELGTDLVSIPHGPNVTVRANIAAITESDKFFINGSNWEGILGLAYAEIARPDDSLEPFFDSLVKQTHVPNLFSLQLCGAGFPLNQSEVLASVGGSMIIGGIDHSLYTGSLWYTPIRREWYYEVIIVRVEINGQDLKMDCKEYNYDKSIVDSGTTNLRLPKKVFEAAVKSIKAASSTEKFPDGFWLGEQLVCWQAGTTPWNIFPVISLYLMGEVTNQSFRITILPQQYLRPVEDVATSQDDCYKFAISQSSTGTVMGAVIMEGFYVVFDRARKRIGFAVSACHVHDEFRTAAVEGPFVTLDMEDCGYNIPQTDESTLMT
The experiment is described as follows: SPR (Biacore).
For the molecule B2, the Kd worked out at 36 nM.
On the same count and under the same terms, the same measure for B3: 0.72 nM; for B9: 1.3 nM; for B4: 7.92 nM.
Same read-out and setting: the same measure for B5: 1.94 nM; for B6: 65.5 nM.

For another experiment, the target named is T2, human BACE1 ECD. The experiment is described as follows: Octet, pH 5.0. The source holds these as a separate data set.
As for B10, the Kd was < 0.24 nM.

In another experiment the target is T3, murine BACE1 ECD. The experiment is described as follows: Octet, pH 5.0. The source holds these as a separate data set.
As for B10, the Kd is < 0.27 nM.

A further experiment concerns the target T2, human BACE1 ECD. The experiment is described as follows: Octet, pH 7.5.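 Also: antibodies captured on anti-human capture biosensor tips, dissociation followed in PBS with BSA buffer, kinetics fitted with a one-to-one binding model.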 This is another data set of the same source.
Take B10: binding was characterised by a dissociation constant (Kd) of 0.78 nM.

In the next experiment the target is T3, murine BACE1 ECD. The experiment is described as follows: Octet, pH 7.5.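 Also: antibodies captured on anti-human capture biosensor tips, dissociation followed in PBS with BSA buffer, kinetics fitted with a one-to-one binding model.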 The source holds these as a separate data set.
The molecule B10 returned a Kd of 0.54 nM.

For a further experiment, the target named is T2, human BACE1 ECD. The experiment is described as follows: cell-based or functional assay.
For the molecule B2, the “% inhibition of BACE1 activity, short FRET substrate” value (from here on “% inhibition of BACE1 activity”) stood at 99%.
On to B3, for which the “% inhibition of BACE1 activity” value was determined as 58%.
Still for that read-out and setting: the same measure for B9: 37%.
Still for that read-out and setting: the same measure for B4: 97%; for B5: 51%; for B6: 99%.
The same measure, in the same setting: the value for B7 was 32%.

The next experiment has as its target T3, murine BACE1 ECD. The experiment is described as follows: cell-based or functional assay.
In the case of B2, the “% inhibition of BACE1 activity” value was 98%.
On to B3, for which the “% inhibition of BACE1 activity” value came to 46%.
Same read-out and setting: the value for B9 was 33%.
Same read-out and setting: the same measure for B4: 98%; for B5: 39%.
Turning to B6, the “% inhibition of BACE1 activity” value stood at 97%.
Still for that read-out and setting: the same measure for B7: 30%.

Another experiment addresses BACE1 (HTRF long substrate and FRET short substrate assays of Example 9D). The experiment is described as follows: cell-based or functional assay.
Take B2: the “EC50, FRET short substrate” value worked out at 24.3 nM and the “EC50, HTRF long substrate” value turned out to be 164 nM.
On the same counts, the results for B3 are 0.703 nM and 1.67 nM.
On the same counts, the results for B9 are 0.798 nM and 3.97 nM.
On the same counts, the results for B4 are 5.93 nM and 33.7 nM.
On to B5, for which the “EC50, FRET short substrate” value was determined as 1.99 nM and the “EC50, HTRF long substrate” value was 4.9 nM.
On the same counts, the results for B6 are 7.88 nM and 171 nM.
With B7, the “EC50, HTRF long substrate” value worked out at 0.578 nM.

For the next experiment, the target named is T5, BACE1 in primary mouse cortical neurons (mouse, UniProt P56818 46-501). The experiment is described as follows: cell-based or functional assay.
T5 sequence (P56818 46-501): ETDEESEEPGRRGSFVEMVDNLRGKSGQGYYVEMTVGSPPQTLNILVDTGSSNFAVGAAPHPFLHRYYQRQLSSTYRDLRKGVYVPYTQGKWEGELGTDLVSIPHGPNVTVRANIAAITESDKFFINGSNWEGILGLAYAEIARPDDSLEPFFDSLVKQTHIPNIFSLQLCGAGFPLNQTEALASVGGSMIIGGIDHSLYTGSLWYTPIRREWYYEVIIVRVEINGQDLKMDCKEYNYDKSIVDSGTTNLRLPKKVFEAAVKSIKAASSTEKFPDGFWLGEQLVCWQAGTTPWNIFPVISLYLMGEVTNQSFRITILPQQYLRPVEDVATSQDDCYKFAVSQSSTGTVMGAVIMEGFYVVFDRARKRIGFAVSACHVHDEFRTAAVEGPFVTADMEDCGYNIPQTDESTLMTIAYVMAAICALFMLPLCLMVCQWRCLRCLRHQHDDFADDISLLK
For B7, the “IC50, Abeta x-40 in mouse cortical neurons” value stood at 42.4 nM and the “maximal % inhibition of Abeta x-40” value amounted to 84%.
On the same counts, the results for B8 are 25.6 nM and 74%.

Another experiment has as its target T5, BACE1 in primary mouse cortical neurons. The experiment is described as follows: cell-based or functional assay. The source holds these as a separate data set.
Regarding B10, the “IC50, Abeta x-40 in mouse cortical neurons” value turned out to be 5.42 nM and the “maximal % inhibition of Abeta x-40” value is 67%.
